Source: US20250179155A1 (VANDERBILT UNIVERSITY, published 2025)
Changes are numbered by the printed parent chain.

B1: A1C1 (VHH)
VHH: QVQLQESGGGLVQAGGSLRLSCAASGGTFSSYSVGWFRQAPGLEREFVGMITWRGITYFEDFVKDRFNISRDNAKNTVYLQMNSLKPEDTAVYSCAARDRRAARIQEFDYWGQGTQVTVSS
B2: A1H1 (VHH)
VHH: QVQLQESGGGLVQAGGSLRLSCAASGGTFSKTSVGWFRQAPGLEREFVALITWSGNTYFVDSVRERFAISRDNAENTVYLQMNSLEPEDTAVYYCAARERTAARIQEFDYWGQGTQVTVSS
B3: A1G6 (VHH)
VHH: QVQLQESGGGLVQPGGSLRLSCAASGRAFSSYAMGWFRQTPGKEREFVAVISWSGGSTYYADSVKGRFTISRDNTKNMVYLQMMSLKPEDTAVYYCAADFSQPLLATVPDDYDYWGQGTQVTVSS
B4: A2H9 (VHH)
VHH: QVQLQESGGGLVQAGGSLRLSCAASGRASSTYVMAWFRQAPGKEREFVAADTWGGAGTYYAPSVKGRFTISRDNAKNMLYLQMNSLKPEDTAAYYCAAGQGRSVTLFQPSTYDYWGQGTQVTVSS
B5: A2B5 (VHH)
VHH: QVQLQESGGGLVQAGGSLRLSCTPSERTFSAYTMAWYRQPPGKEREFAAGIKWSGSGGITLYADSVKGRFTISGDNAKSTVYLEMNSLKPEDTAVYYCTAGPTVYNPHYWGQGTQVTVSS
B6: A1H5 (VHH)
VHH: QVQLQESGGGLVQPGGSLRLSCAASGSIFSINAMGWYRQAPGKQRELVASITSGGSTNYADSVKGRFTISRDGAKNTVYLQMNSLKPEDTAVYYCHVPWTDDFGWAVKDYWGQGTQVTVSS
B7: A2H4 (VHH)
VHH: B6 VHH with S50K, S56T, H96N, V97L, D101S, F103L
B8: A1C11 (VHH)
VHH: QVQLQESGGGLVQAGDSLRLSCAASGRTFSRYAMGWFRQAPGKEREFVAAISWSGGTTYYADSVKGRFTISRDNAKNTVYLQMNSLKPEDTAVYYCAAGLFRGDLTRFKLDEYDYRGQGTQVTVSS
B9: A1D8 (VHH)
VHH: B8 VHH with D16G, A23V, R27G, M34L, W53Y, G56A, Y80F, L100F, R107K
B10: A2C2 (VHH)
VHH: B8 VHH with A14T, D16G, A23T, P41S, W53Y, A61S, N77S, Y80S, K109T
B11: A2F12 (VHH)
VHH: B8 VHH with D16G, G56D, Y60D, I70V, R107K, K109E
B12: A2A8 (VHH)
VHH: QVQLQESGGGLVQAGDSLRLSCTASGGTFSSYSIGWFRQAPGLEREFVALITWRNNTYLGDSVRERFAISRDNAKNTVYLQMNSLKPEDTAVYSCAARERRVARIQEFDYWGQGTQVTVSS
B13: A2A6 (VHH)
VHH: QVQLQESGGGLVQAGGSLRLSCADSGRTFSRYEMGWSRQAPGKEREFVAVINRLGRSTYYADSVKGRFTISRDNAKNTVYLQMNSLKPEDTAVYYCAAGVRLNLPQIPDVIDFWGQGTQVTVSS
B14: A2B10 (VHH)
VHH: QVQLQESGGGTVQPGGSLRLSCAASGRDFSSGAMGWFRQTPGNEREFVGVGWSGGLIDYSDSVKGRFTITRDKLKNEVYLRMDRLKPEDTAVYFCAVNSANSCAGYDCHDKPQTYNYWGQGTQVTVSS
B15: A2F10 (VHH)
VHH: QVQLQESGGGLVQPGGSLRLSCAASGRSFSSGAMGWFRQAPGKEREFVGVGWSGGLIDYAASVRGRFTITRDKAKNTVYLRMDSLRPEDTAVYYCAINSANSCAGYDCHDKPQVYDYWGQGTQVTVSS
B16: A1C4 (VHH)
VHH: QVQLQESGGGLVQPGGSLRLSCAASGRSFSINTMGWYRQAPGNKRDMVATITTGGNTNYADSVKGRFTISRDNAKNTVYLQMNSLKPEDTAVYYCRTVVVTPYPDEFEYDYWGQGTQVTVSS
B17: A1G4 (VHH)
VHH: QVQLQESGGGLVQAGGSLRLSCAVSGRTLNSYAMGWFRQALGKEREFVAGISRAGGMTRYTDSVKGRFTISRDDAKNTVYLQMNSLKPDDTAVYSCAASFALVDSAGAYDYWGQGTQVTVSS
B18: A2G5 (VHH)
VHH: B17 VHH with N30S, A54G, F100Y, V103I, S105M, A106S, G107S
B19: B1C10 (VHH)
VHH: QVQLQESGGGLVQPGGSLRLSCLASGLSLSTDVMSWFRQAPGKERELVAGIRSAGWITNYADSVKGRFTISVDSAKNTVYLQMNSLKPEDTAVYYCKVLRLPDGLAFWGQGTQVTVSS
B20: B2C5 (VHH)
VHH: QVQLQESGGGLVQPGGSLRLSCAASGLTSGTYVMSWFRQAPGKEREFVAAIRDAGGIRNYADSVKGRFTISRDAAKNMIFLQMNSLKPEDTAVYYCKFLRLPESLAYWGQGTQVTVSS
B21: B2C11 (VHH)
VHH: QVQLQESGGGLVHVGESLTLSCVAPGSIFGVNTMAWYRQAPGKQRELVAAISPGGYTNYAEFVKGRFGISRDKAKNTVYLQMNDLKPEDTAVYYCNYRSGTSRPNTNWGQGTQVTVSS
B22: B0C10 (VHH)
VHH: QVQLQESGGGLVQPGGSLRLSCTASGFTRKHYTIGWFRQAPGKEREGVSCITTPDNSTYYKDSVKGRFTISRDNAKNTVYLQMNNVKPEDTAVYYCGASALGGSSCAQSSSVLHRLFQWGQGTQVTVSS
B23: B1E7 (VHH)
VHH: QVQLQESGGGLVQPGGSLRLSCAASGSLRSGYVMSWHRQAPGKQRELVASITTGDITQYGASVKGRFTISRDETKNMGWLQMNSLLPEDTAVYYCKITELPTVSVYWGQGTQVTVSS
B24: B0E2 (VHH)
VHH: QVQLQESGGGLVLPGGSLRLSCAASGTVFKIYVMGWYRQAPGKQRELVATISNGGTPNYADSVKGRFTISGDRAKNTVFLQMSSLNVEDTAVYYCNRRQLEGRQSEDYWGQGTQVTVSS
B25: B0A9 (VHH)
VHH: QVQLQESGGGLVQPGGSLRLTCTSSTSINIYPYMGWYRQAPGKQRERVATVNRDGNTNYLDSVKGRFTITRDDAKKTICLQMNNLEPEDTAVYYCNNFGSSSWGQGTQVTVSS
B26: B0B7 (VHH)
VHH: QVQLQESGGGSVQPGGSLRLSCAASGSIYGMMMMAWYRQRTGEQRELVANFTRDGSTNYVDSVKGRFTISRDNDKKMVYLQMKDLKPEDTAVYYCNIQRYWGKGTAVTVSS
B27: B0B11 (VHH)
VHH: QVQLQESGGGLVQPGGSLRLSCATSGFYFPNYAMSWHRQAPGQERELVARITSAGGSTDYADSVKGRFTISRDNSKNTVYLQMNGLISEDTAVYYCNADPSYGTRYWGQGTQVTVSS
B28: B0D11 (VHH)
VHH: QVQLQESGGGLAQPGGSLRLSCAASGFTFSHAVMSWFRQAPGKERELVAGWRSAGGITNYADSVKGRFTISGDNAKDVVYLQMNSLKPEDTAVYYCKAFVVGSAYWGQGTQVTVSS
B29: A1D1 (VHH)
VHH: QVQLQESGGGLVQAGGSLRLSCAASGRTFSTHTMAWFRQAPGKEREFVTGIRWSDGMTIYADSVKGRFTISRDKATNTMYLEMNTLKPDDTAVYYCGAGPTMYHPTYWGQGTQVTVSS

target: full-length TcdA (TcdA1-2710) (Clostridioides difficile strain VPI10463, UniProt P16154 1-2710); experiment: cell-based or functional assay

| Binder | EC50, TcdA neutralization, T84 cells [nM] | EC50 (nM), TcdA neutralization, Vero cells [nM] | EC50 (nM), TcdA neutralization, T84 cells [nM] |
| --- | --- | --- | --- |
| B1 | > 10000 | – | – |
| B2 | > 10000 | – | – |
| B3 | – | 6.4 | – |
| B4 | – | 8.7 | 105 |
| B5 | – | 11.1 | – |
| B6 | – | 15.7 | – |
| B7 | – | 40.9 | 838 |
| B8 | – | < 1 | 10.4 |
| B9 | – | < 1 | 2.1 |
| B10 | – | < 1 | 2.4 |
| B11 | – | < 1 | 1.1 |
| B12 | > 10000 | – | – |
| B13 | – | 1 | 91 |
| B14 | – | – | 678 |
| B15 | – | – | 455 |
| B16 | – | 2.5 | 60.3 |
| B17 | – | 8.5 | 844 |
| B18 | > 10000 | – | – |

target: full-length TcdB (TcdB1-2366), VPI10463 (Clostridioides difficile strain VPI10463, UniProt P18177 1-2366); experiment: cell-based or functional assay
Sequence (P18177 whole entry): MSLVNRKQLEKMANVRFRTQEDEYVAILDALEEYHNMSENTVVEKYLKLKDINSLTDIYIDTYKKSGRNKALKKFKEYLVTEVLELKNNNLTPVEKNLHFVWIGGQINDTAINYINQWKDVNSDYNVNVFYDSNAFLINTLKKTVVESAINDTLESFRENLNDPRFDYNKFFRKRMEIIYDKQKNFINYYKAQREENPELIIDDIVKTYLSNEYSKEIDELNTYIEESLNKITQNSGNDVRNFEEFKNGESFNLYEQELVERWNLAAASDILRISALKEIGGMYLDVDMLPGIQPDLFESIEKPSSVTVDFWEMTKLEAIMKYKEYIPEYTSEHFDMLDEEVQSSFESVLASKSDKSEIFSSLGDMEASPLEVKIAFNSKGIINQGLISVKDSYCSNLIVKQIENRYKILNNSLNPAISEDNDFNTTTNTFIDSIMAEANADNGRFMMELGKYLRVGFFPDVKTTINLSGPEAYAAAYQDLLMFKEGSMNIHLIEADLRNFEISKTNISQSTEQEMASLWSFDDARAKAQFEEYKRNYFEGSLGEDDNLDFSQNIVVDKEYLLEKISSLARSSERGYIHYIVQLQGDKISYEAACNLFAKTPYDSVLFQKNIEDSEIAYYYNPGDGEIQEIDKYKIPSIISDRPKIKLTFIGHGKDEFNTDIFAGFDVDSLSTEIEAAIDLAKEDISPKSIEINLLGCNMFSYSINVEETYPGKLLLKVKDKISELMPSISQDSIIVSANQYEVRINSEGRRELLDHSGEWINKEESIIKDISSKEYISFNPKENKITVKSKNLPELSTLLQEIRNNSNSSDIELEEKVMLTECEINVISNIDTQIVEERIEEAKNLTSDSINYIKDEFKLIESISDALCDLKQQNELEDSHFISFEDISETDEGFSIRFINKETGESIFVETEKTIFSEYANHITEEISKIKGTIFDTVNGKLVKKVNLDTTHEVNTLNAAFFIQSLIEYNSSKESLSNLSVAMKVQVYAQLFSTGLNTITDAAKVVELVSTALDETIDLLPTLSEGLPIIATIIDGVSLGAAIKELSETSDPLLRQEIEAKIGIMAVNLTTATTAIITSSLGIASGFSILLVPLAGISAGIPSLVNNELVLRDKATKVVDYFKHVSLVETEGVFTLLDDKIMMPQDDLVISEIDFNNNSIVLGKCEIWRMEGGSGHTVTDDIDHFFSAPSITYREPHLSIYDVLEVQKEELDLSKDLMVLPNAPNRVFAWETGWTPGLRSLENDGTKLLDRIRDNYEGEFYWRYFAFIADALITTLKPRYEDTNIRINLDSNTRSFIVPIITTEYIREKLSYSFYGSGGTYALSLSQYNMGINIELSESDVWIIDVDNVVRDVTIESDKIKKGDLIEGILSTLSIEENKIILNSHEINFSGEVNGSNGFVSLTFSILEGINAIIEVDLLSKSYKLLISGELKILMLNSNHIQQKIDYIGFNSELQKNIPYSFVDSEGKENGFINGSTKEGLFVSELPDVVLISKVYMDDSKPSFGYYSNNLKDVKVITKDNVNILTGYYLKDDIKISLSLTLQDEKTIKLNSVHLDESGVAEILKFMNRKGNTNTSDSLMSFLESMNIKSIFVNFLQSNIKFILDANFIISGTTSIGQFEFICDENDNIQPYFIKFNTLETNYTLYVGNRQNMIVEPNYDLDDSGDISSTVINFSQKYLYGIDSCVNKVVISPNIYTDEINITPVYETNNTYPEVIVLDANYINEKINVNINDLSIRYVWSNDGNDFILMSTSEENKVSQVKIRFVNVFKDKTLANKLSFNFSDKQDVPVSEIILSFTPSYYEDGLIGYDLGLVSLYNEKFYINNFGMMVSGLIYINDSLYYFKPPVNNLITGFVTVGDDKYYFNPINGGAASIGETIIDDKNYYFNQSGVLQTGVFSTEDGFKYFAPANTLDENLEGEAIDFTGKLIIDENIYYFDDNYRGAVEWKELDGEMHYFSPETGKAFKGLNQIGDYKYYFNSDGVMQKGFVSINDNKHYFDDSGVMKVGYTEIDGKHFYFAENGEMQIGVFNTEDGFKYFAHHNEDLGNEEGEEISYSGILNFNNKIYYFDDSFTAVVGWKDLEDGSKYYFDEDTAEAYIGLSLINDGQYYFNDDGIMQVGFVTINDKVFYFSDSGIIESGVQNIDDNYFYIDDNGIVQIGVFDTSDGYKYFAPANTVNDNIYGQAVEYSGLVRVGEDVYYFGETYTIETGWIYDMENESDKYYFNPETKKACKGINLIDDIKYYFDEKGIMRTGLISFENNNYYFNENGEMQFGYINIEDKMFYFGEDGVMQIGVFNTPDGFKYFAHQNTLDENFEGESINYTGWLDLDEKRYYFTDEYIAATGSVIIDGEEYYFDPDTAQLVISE

| Binder | EC50 (nM), TcdB neutralization, Vero cells [nM] | EC50 (nM), TcdB neutralization, Caco-2 cells [nM] |
| --- | --- | --- |
| B19 | 2.2 | – |
| B20 | < 1 | – |
| B21 | < 1 | – |
| B22 | 1.3 | < 1 |
| B23 | 10 | – |
| B24 | 28 | < 1 |
| B25 | 12.9 | 1.3 |
| B26 | < 1 | – |
| B27 | 350 | 161 |
| B28 | 176 | 111 |

target: T1, TcdA-GTD (TcdA1-542) (Clostridioides difficile strain VPI10463, UniProt P16154 1-542); experiment: ELISA-like screen of clone lysates on isolated domains
T1 construct: range 1-542; also called TcdA glucosyltransferase domain
T1 sequence (P16154 1-542 limits assumed): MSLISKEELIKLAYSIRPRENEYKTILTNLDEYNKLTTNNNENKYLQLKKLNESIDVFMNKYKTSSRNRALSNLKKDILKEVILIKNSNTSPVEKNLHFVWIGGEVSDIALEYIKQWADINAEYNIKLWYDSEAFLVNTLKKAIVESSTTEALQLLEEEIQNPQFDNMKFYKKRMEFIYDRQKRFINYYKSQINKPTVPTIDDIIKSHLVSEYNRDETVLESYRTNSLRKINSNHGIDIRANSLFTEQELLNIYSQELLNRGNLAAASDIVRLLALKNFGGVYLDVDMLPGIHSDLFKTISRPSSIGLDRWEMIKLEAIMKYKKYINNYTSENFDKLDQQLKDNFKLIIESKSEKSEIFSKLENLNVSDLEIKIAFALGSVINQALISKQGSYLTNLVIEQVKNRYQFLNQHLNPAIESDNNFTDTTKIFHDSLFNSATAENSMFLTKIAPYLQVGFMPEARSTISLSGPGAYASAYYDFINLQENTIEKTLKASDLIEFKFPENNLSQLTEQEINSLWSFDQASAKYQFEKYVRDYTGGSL

| Binder | binding result |
| --- | --- |
| B3 | no binding |
| B4 | no binding |
| B5 | no binding |
| B6 | no binding |
| B7 | no binding |
| B29 | no binding |
| B8 | no binding |
| B9 | no binding |
| B10 | no binding |
| B11 | no binding |
| B13 | no binding |
| B16 | no binding |
| B17 | no binding |
| B18 | no binding |
